Test results published in patent US20240301022A1 (ASTON UNIVERSITY, published 2024).

Legend:
[1] = target: T1, human β2-adrenergic receptor (human, UniProt P07550 1-413); assay: [125I] ZAG saturation binding to crude membranes of CHO-K1 cells transfected with human β2-AR, non-linear regression
T1 construct: whole, on cells; CHO-K1 cells transfected with the human β2-AR, from the University of Nottingham; also called β2-AR; β-2AR
Procedure: (§1) Binding studies were carried out at 37° C. by incubating membranes (500 μg protein) in 0.4 ml 50 mM Tris HCl, pH 7.5, containing 0.5 mM MgCl₂ for 60 min with various concentrations of [¹²⁵I]
(§2) Non-specific binding was determined by the binding of [¹²⁵I]

[2] = target: T2, human β3-adrenergic receptor (human, UniProt P13945 1-408); assay: [125I] ZAG binding to crude membranes of transfected CHO-K1 cells; reference is ZAG on β2-AR
T2 construct: whole, on cells; CHO-K1 cells transfected with the β3-AR, from Astra Zeneca; also called β3-AR; β-3AR
Procedure: as §1, §2

[3] = target: T3, human β1-adrenergic receptor (human, UniProt P08588 1-477); assay: [125I] ZAG binding to crude membranes of CHO-K1 cells transfected with human β1-AR, non-linear regression
T3 construct: whole, on cells; CHO-K1 cells transfected with the human β1-AR, from the University of Nottingham; also called β1-AR; β-1AR
Procedure: as §1, §2

[4] = target: T2, human β3-adrenergic receptor; assay: [125I] ZAG saturation binding to crude membranes of CHO-K1 cells transfected with human β3-AR, non-linear regression
Procedure: as §1, §2

[5] = target: T1, human β2-adrenergic receptor; assay: [125I] ZAG binding to crude membranes of transfected CHO-K1 cells; reference is ZAG on β3-AR
Procedure: as §1, §2

T2 sequence (P13945 whole entry): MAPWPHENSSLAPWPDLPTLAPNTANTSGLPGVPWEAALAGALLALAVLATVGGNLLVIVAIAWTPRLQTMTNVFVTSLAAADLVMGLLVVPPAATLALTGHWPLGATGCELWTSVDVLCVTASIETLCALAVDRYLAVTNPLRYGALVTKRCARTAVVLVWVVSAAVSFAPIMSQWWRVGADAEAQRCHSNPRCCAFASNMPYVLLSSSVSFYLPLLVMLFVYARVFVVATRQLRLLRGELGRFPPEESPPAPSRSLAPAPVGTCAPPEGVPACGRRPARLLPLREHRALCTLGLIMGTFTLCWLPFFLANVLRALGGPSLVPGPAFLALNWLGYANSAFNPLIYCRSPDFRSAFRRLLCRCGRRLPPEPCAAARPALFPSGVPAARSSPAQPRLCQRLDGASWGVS
T3 sequence (P08588 whole entry): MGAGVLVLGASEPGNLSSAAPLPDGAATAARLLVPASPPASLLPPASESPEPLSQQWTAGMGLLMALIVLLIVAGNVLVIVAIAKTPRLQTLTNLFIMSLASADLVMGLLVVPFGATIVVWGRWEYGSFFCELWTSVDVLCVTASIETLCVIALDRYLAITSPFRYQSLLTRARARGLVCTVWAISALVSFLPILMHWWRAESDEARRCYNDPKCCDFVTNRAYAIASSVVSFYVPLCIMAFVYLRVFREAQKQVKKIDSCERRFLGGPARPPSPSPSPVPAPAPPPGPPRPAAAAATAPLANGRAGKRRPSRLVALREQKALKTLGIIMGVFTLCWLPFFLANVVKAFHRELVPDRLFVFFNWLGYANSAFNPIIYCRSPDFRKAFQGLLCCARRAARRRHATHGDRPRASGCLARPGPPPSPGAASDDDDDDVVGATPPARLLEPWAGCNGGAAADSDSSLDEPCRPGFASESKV

B1: recombinant human zinc-α2-glycoprotein (ZAG) (ligand)
chain: QENQDGRYSLTYIYTGLSKHVEDVPAFQALGSLNDLQFFRYNSKDRKSQPMGLWRQVEGMEDWKEDSQLQKAREDMETLKDIVEYYNDSNGSHVLQGRFGCEIENNRSSGAFWKYYYDGKDYIEFNKEIPAWVPFDPAAQITKQKWEAEPVYVQRAKAYLEEECPATLRKYLKYSKNILDRQDPPSVVVTSHQAPGEKKKLKCLAYDFYPGKIDVHWTRAGQVQEPELRGDVLHNGNGTYQSWVVVAVPPQDTAPYSCHVQHSSLAQPLVVPWEAS
modifications: 125I label (iodo bead labelling) in the membrane binding studies; labelled residues not stated
notes: Glycoprotein; also called Zn-α2-glycoprotein; rhZAG
Question: How did the Kd [1] turn out when B1 was run?
Answer: The Kd was 71 nM.

Question: And the “Bmax relative to β2-AR” value [2]?
Answer: The value was ~3 fold.

Question: What about the “Kd relative to β2-AR” value [2] of the same binder?
Answer: The value was ~0.5 fold.

Question: Does B1 bind [3]?
Answer: Result: no binding

Question: What about the Kd [4] of the same binder?
Answer: Its Kd is 46 nM.

Question: What about the “Bmax relative to β3-AR” value [5] of the same binder?
Answer: The value was 20%.

Question: What about the “Kd relative to β3-AR” value [5] of the same binder?
Answer: Its value is 2 fold.
